This note sets out measurements from patent US20160024208A1 (Regeneron, published 2016).

In general, Kd refers to the equilibrium constant for the complex coming apart. Low readings indicate higher affinity, high ones lower affinity.

The target of assay [1] is T1, Native Nav1.7 (3-1) peptide, human (human).
T1 construct: Synthetic peptide (Celtek), unbiotinylated; also called Human Nav1.7 3-1 native; Nav1.7 3-1 native peptide
T1 peptide: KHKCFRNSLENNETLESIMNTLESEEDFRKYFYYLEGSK
Description: SPR, captured antibody, peptide analyte. In short, it runs like this:
(§1)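 Biacore SPR: antibody captured via Fc on anti-Fc surface, Nav1.7 loop peptides injected as analyte at several concentrations. Double-referenced sensorgrams globally fitted to a 1:1 model; KD = kd/ka, t1/2 = ln2/kd.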
(In general: In SPR one partner is held on a chip, and binding of the other changes the refractive index at the surface.)

For assay [2], the target named is T2, N-Term Biotin Nav1.7 (3-1) peptide, mulatta (mulatta (monkey), not fully specified; N-terminal biotin attached via a G4S linker).
T2 construct: Synthetic peptide; also called Mulatta Nav1.7 3-1 N-term biotin; monkey
T2 peptide: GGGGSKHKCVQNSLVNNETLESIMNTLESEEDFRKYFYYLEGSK
Description: SPR, captured antibody, peptide analyte. In short, it runs like this: as §1

The target in assay [3] is T3, N-Term Biotin Nav1.7 (3-1) peptide, mouse (mouse, not fully specified; N-terminal biotin attached via a G4S linker).
T3 construct: Synthetic peptide; also called Mouse Nav1.7 3-1 N-term biotin
T3 peptide: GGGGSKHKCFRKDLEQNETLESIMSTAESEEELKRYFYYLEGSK
Nature of the assay: SPR, captured antibody, peptide analyte. In short, it runs like this:
as §1

Assay [4] addresses T4, Native Nav1.7 (3-1) peptide, rat (rat).
T4 construct: Synthetic peptide; also called Rat Nav1.7 3-1 native
T4 peptide: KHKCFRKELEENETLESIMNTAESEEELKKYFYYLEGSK
Nature of the assay: SPR, captured antibody, peptide analyte. In short, it runs like this: as §1

The target in assay [5] is T5, C-term Biotin Nav1.7 (3-1) peptide, human (human, not fully specified; C-terminal biotin attached via a G4S linker).
T5 construct: Synthetic peptide; also called Human Nav1.7 3-1 C-term biotin
T5 peptide: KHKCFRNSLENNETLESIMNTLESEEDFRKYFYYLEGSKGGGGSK
Description: SPR, captured biotin-peptide, antibody analyte.

The target of assay [6] is T6, full-length human Nav1.7 fused at its N-terminus to GFP, expressed in HEK293 cells (human, UniProt Q15858 1-1988).
T6 construct: Voltage-gated sodium channel alpha subunit; In the Western blot it stood as denatured cell lysate; also called hNav 1.7-GFP-HEK293; Nav 1.7-GFP-HEK293; not shown: green fluorescent protein (GFP) at the N-terminus
Nature of the assay: flow cytometry on Nav1.7-GFP-HEK293, antibody 3.3 nM. The procedure: (§2) The specificity of binding of anti-Naᵥ 1.7 human antibodies to full-length Naᵥ 1.7 expressed in HEK293 cells was determined by peptide competition experiments using flow cytometry.
(§3) HEK293 cells stably-transfected with full-length Naᵥ 1.7 fused at its N-terminus to GFP (Naᵥ 1.7-GFP-HEK293) were used for this study. Antibody binding to the transfected cells overexpressing Naᵥ 1.7 was compared to binding in the presence of excess peptide and to binding to the parental HEK293 cell line. To perform the binding experiments, adherent cells were collected using 1 mM EDTA in PBS, washed and re-suspended in cold PBS containing 5% FBS. For each binding experiment the anti-Naᵥ 1.7 antibody at a final concentration of 3.3 nM (in PBS/5% FBS) was added to cells either directly or after incubating for 10 min on ice with a 1000-fold molar excess (3.3 uM final concentration in PBS/5% FBS) of synthetic peptide with sequence corresponding to the loop specificity of the antibody. The antibodies designated as H4H391P, H4H443B, H4H448B, and H1M797N were preincubated as described above with a synthetic peptide corresponding to EC loop 3-1 (amino acid residues 269-338 of SEQ ID NO: 670), whereas the antibodies designated as H4H468P and H1 M852N were preincubated with a synthetic peptide corresponding to EC loop 3-3 (amino acid residues 1333-1382 of SEQ ID NO: 670). The antibody or antibody-peptide mixture was then allowed to incubate with cells for 20 min on ice, followed by addition of 500 uL of cold PBS/5% FBS. Cells were collected by centrifugation, resuspended in 500 uL of cold PBS/5% FBS, and then secondary antibody matched to the antibody isotype (either anti-human-Fc conjugated to Cyanine 5 or anti-mouse-Fc conjugated to allophyococyanin) was added. Binding was detected on the flow cytometry instrument and analyzed as percent binding using the instrument software. For FACS analysis appropriate gating was applied so that only healthy, live cells were counted. Background staining of secondary antibodies alone to Naᵥ 1.7-GFP-HEK293 cells was tested and recorded for all samples, and results ranged between 1-2% binding.
Background: Flow cytometry measures light scatter and fluorescence of single cells or particles in a stream.

The target of assay [7] is T6, full-length human Nav1.7 fused at its …. Nature of the assay: flow cytometry; % stained hNav1.7-GFP-HEK293 minus parental HEK293. The procedure: The binding of anti-Naᵥ 1.7 human antibodies to full-length Naᵥ 1.7 expressed in HEK293 cells was determined by flow cytometry (FACS). HEK293 cells were stably-transfected with full-length human Nav1.7 fused at its N-terminus to the green fluorescent protein (GFP) to generate cell line hNaᵥ 1.7-GFP-HEK293. Antibody binding to the transfected cells overexpressing Naᵥ 1.7 was compared to binding to the parental HEK293 cell line. To perform the binding experiments, adherent cells were collected using 1 mM EDTA in PBS, washed and re-suspended in cold PBS containing 5% FBS. For each binding experiment, the anti-Naᵥ 1.7 antibody (at concentrations ranging from 1 nM to 13 nM), was added to 250,000 cells in 500 μL of PBS with 5% FBS. After incubation for 20 minutes on ice, the secondary antibody, recognizing either human-Fc and conjugated to cyanine 5 (Cy5) or recognizing mouse-Fc and conjugated to allophyocyanin (APC), was then added to the cell mixture at a final secondary antibody concentration of 1.7 nM. After incubating for 20 minutes on ice, the cells were resuspended in PBS+5% FBS and then sorted and analyzed on a flow cytometer to determine relative binding by the candidate antibodies. For FACS analysis, gating was applied to examine only healthy live cells in the antibody binding experiments, and percentage stained was recorded. Staining of secondary antibodies alone to Naᵥ 1.7-GFP-HEK293 cells gave low background signals (1-2%). Specific binding was measured as the percent binding to Naᵥ 1.7-GFP-HEK293 cells minus percent binding to parental HEK293 cells.

Assay [8] has the same target. Description: flow cytometry on Nav1.7-GFP-HEK293, antibody 3.3 nM preincubated with 3.3 uM EC 3-1 peptide as competitor. The procedure:
as §2, §3

In assay [9] the target is T3, N-Term Biotin Nav1.7 (3-1) peptide, …. Description: ELISA on coated peptide. How it is done: Anti-Naᵥ 1.7 antibodies were tested for their ability to bind to the Naᵥ 1.7 peptides. The various peptides were coated overnight onto 96-well Nunc Immunosorp plates at a concentration of 4 μg/mL in PBS, followed by blocking for 1 hour in a suitable blocking agent. For biotinylated peptides, avidin was first coated on Nunc Immunosorp plates at 2 μg/mL in PBS overnight, followed by blocking as described, and the plate was then coated with biotinylated peptides at a concentration of 0.4 μg/mL and incubated for 1 hour at room temperature. Purified anti-Naᵥ 1.7 antibodies were diluted to a final concentration of 0.1 μg/mL and 1.0 μg/mL and added to the wells of the coated microtiter plates followed by incubation for 1 hour at room temperature. Bound antibodies were detected with horseradish peroxidase (HRP) conjugated anti-mouse or anti-human IgG (Jackson Immuno Research Lab, West Grove, Pa.) depending on the antibody species and developed by colorimetric response using tetramethylbenzidine (TMB) substrate (BD Biosciences). Absorbance was read at OD₄₅₀ on a plate reader for 0.1 second.
Values in Table 11 represent absolute binding ranges (at OD450) to plate-coated peptides for antibodies added at 1 μg/ml as follows: OD450<0.2: −; 0.2<OD450<1: +; 1<OD450<2: ++; 2<OD450<4: +++; NT: Not Tested.
(In general: An ELISA detects its analyte on a solid surface through an enzyme-linked reagent.)

For assay [10], the target named is T6, full-length human Nav1.7 fused at its …. Nature of the assay: cell-based or functional assay.
Assay [11] addresses T2, N-Term Biotin Nav1.7 (3-1) peptide, …. Nature of the assay: ELISA on coated peptide, antibody 1 ug/ml, OD450 grade. The gist of the method: (§4)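 Peptides coated at 4 μg/mL in PBS, or biotinylated peptides captured at 0.4 μg/mL on avidin (2 μg/mL). Antibodies at 0.1 and 1.0 μg/mL, 1 h at room temperature, detected with HRP anti-mouse or anti-human IgG and TMB at OD450. Scores at 1 μg/ml: <0.2 −; 0.2–1 +; 1–2 ++; 2–4 +++.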

For assay [12], the target named is T7, N-Term Biotin-Nav1.7 (3-1) peptide, human (human, not fully specified; N-terminal biotin attached via a G4S linker).
T7 construct: ELISA peptide
T7 peptide: T2 peptide with V10F, Q11R, V15E
The description is as above. In short, it runs like this:
as §4

Substitutions are numbered along the chain they refer to.

B1: H4H391P (antibody, V domains shown)
VH: QVQLVESGGGVVQPGRSLRLSCAASGFTFSSYGMHWVRQAPGKGLEWVAVISYEGSNKHYADSVKGRFTISRDNSKNTLYLQMNSLRAEDTAVFYCAQSRGYSYGLGYWGQGTLVTVSS
VL: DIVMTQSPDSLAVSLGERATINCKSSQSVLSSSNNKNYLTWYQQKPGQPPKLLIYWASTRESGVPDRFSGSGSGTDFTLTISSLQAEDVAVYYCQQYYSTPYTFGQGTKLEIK
B1: the results for the dissociation constant (Kd) in [1], in [2] and in assay [5] were 13.6 nM, 2.18 nM and 0.802 nM, respectively. In addition, the results for the t1/2 in assay [1], in [2] and in [5] were 8.1 min, 36.1 min and 64.6 min, respectively. The binding result in assay [3] and in assay [4] was “no binding” throughout. In assay [6], the “% Binding Nav1.7 (Stable Line)” value worked out at 7.8%. In addition, the “% Binding Nav1.7” value in assay [7] was determined as 14.3%. The “% Binding Nav1.7 + 1000x Peptide (Competition Binding)” value (“% Binding Nav1.7 + 1000x Peptide” for short) in assay [8] turned out to be 2.6%.

B2: H4H408B (antibody, V domains shown)
VH: B1 VH with E54Q, G55E, A61V, F94Y
VL: DIQMTQSPSSLSASVGDRVTITCRASQGIRNDLGWYQQKPGKAPKRLIYAASSLQSGVPSRFSGSGSGTEFTLTISSLQPEDFATYYCQQHNSYPLTFGQGTKVEIKR
Turning to B2, the OD450 in assay [9] was below 0.2 od. Besides, the binding result in assay [3] was “no binding”.

B3: H4H362B (antibody, V domains shown)
VH: QVQLVESGAEVKKPGASVKVSCKASGYTFTTYGISWVRQAPGQGLEWMGWISAYNGKTNYAQKFQGRVTMTTDTSTNTAYMELRSLRFDDTAVYYCARDGGTPFYYWGQGTLVTVSS
VL: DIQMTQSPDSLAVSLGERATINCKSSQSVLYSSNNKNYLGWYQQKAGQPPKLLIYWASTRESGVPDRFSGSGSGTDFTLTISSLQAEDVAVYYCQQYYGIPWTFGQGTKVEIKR
As for B3, the “Current blocking (Average % inhibition), IonWorks Quattro, 223 nM antibody” value in assay [10] stood at 25.5%. Moreover, the figures for the OD450 in assay [9], in assay [11] and in [12] were below 0.2 od, 2 to 4 od and 2 to 4 od, respectively. Further, the Kd turned out to be 0.612 nM in assay [1], 0.257 nM in assay [2] and 0.218 nM in assay [5]. Moreover, the t1/2 turned out to be 8.6 min in [1], 36.1 min in assay [2] and 101 min in assay [5]. Besides, in assay [3], the binding result was “no binding”. Besides, the “% Binding Nav1.7” value in assay [7] amounted to 3.7%.

B4: H1M994N (antibody, V domains shown)
VH: QVQLVESGGGVVQPGRSLRLSCAASGFTFSSYGMHWVRQAPGKGLEWVAVISYDGNNKHFADSVKGRFTISRDNSKNTLNLQMNSLRAEDRAVYYCARGASGFVLDIWGQGTMVTVSS
VL: DIVMTQTPLSSPVTLGQPASISCRSSQSLVRSDGNTYLSWLQQRPGQPPRLLIYKISNRFSGVPDRFSGSGAGTDFTLKISRVEAEDVGIYFCMQTTQFPFTFGPGTKVDIK
notes: Hybridoma-derived
With B4, in [6], the “% Binding Nav1.7 (Stable Line)” value worked out at 93%. The “% Binding Nav1.7” value in [7] was 36%. Further, in assay [8], the “% Binding Nav1.7 + 1000x Peptide” value was found to be 33.4%.

B5: H1M826N (antibody, V domains shown)
VH: QVQLVESGGGVVQPERSLRLSCAASGFTFSSYGMHWVRQAPGEGLEWVAVISYDGSNTKYADSVRGRFTISRDNSKNMLYLQMNSLRAEDTAVFYCARGYSGYAFDYWGQGILVTVSS
VL: B4 VL with Q27H, S70T, S81N, I90F, F92Y, T96A
notes: Hybridoma-derived
On to B5, for which the “% Binding Nav1.7 (Stable Line)” value in assay [6] was 95.6%. For the same molecule, the “% Binding Nav1.7” value in assay [7] was determined as 61%. Moreover, the “% Binding Nav1.7 + 1000x Peptide” value in assay [8] is 17.7%.
